We go through 17 sequences from a protein production outcome set (Wang et al. 2014).

The data set in a line: label from the status in PepcDB records.

With “MKNGGVFVSIALLVTITLVMGVIFVNGWTDAPNAIATAVSTRVLKPNVAIWMAVVMNFLGALVMTFFNAQVAETISNIVSFDANGNASQVALAASLFSIVVWAVAAWYFGIPTSESHALIAGLTGSAMALGGLGAVNGSEWIKVLVGLVVSTVMGFGGGYLIAKLVVKAFSAVPRRKANKFFTVGQAFGAGANAFLHGAQDGQKFMGVFMLVLFYNNLVEKTGGGFVIPLWVMVLCSITMGIGTSVGGMRIIKSVGMDMVKLERYQGFTADLSTAICLFLASAFGIPVSTTHTKTTAIMGVGASKRISSVDWRIVKEMLIAWILTFPGCGLIAYVMSKLFIAIF”, the protein production result is recorded as “failed”. “MKNKGLIATLILLTILVVGELFYNKSEKRLNLSEKQVVKIGILQYVTHDALDAIEKGVEDGLAQEGYKGKKVKLTVLNAEADQSKIQAMSKQLVNHHNDILIGIATPSAQGLAASTKDTPIIMGAVSDPLGAKLVTNMKKPTTNVTGLSNVVPTKQTVQLIKDITPNIKRIGILYASSEDNSVSQVTEFTKYAQKAGLEVLKYSVPSTNEIKTSMSVMTKKVDAVFVPQDNTIASAFRTVIVAANQANIPVYSSVDTMVEQGSIASVAQSQYGLGLETAKQAIKVLRGKPVKDVPVKVIDTGKPSLNLKAAKHLGIKIPKKIMKQAEITVKVDD”: the protein production result is “failed”. In the case of “MKNKLAITKLSNNVFLLLCTALTFTPIANAAEVIELTIAEPSALKPDFIGYNANMMSAMSTNPWDRTELTQLYKNTGTSIIRYPGGTIANNFDWPTGNQIKINSSGEESLGSYDYKISNFKTGYQNAGFEPIFVVNLLTRDLQHTLDGLADATAKSLPINRIELGNEFFLKDEAYVDMFPSGQDYVSKADIWTDAIKAIYPHVEIAYVSTMKKDPRSLEWNEKISQCTKCDAIIIHTYTRSELNPVLPADKSTSYFGTNEEQNQQWQQFITNSGVDIMLAQPFEAWHGYTSLNNLPSDKKIWITEFNMKDGTGPTRNTWAHALFNANQLQSFLTDGRVEIALLHNLITGAKSGSHYLGNTFSGLTIDHGQGDLSSQKYSLSAGGIAMRAFGSVLKGMDTIAKINLSDTPTVSPTGYADYDAIYGWQGSNSANEEQRYLLINTSSVSYTVNTENLTTSNKSVRQYWTKPQTFIHSEEVLSGGMVNSLPTLLKLPAYSITVIGETAIELPSNYQQTLTLTATDDHFTKEANPNGKGQPTASQININNSEGDQSRPHIKFNTNQVKGSIESVTLKVYSESVTDTVSAHKINNEWDEYELTWNTMPTLGEFINSASADKNAWLEINVTASLLKSDSLLSFALTNSLTSLNKFSSKEGNKAPELIITTSNAVINVADTNITKDDANILQYYSNSLADAVSDDDNDKLSFYKTSGPSWLMLWSNGKIEGTPTADDIGENTFAIKVSDNTGQASATTALNLTINVISDAPTNAAPVWNNIQNILQQATENISYNSNILALATDADNDALIFAKVSGPDWLSLSDAGEVTGTATNSDIGENNVIVSVTDGTNNSNEFINNELIITVTAEIAVEPINNAPTWSNENIALELATQEQAYTNNIMTFTNDLDGDILVFAKVSGPQWLTLSEAGDITGTPSGNDIGENIFILSVTDSDSDTAQVINNTFTIIVSTKPEPEPTPKTEEDNSEGGSISFSLLLLCFLRVFTMRNKF”, the protein production entry was “failed”. Turning to “MKNKQSKSLLIKSMALTGLFTISACANEELADTLLTNTNIYGHNNATSLAIKDGKIVYIGDEQNAMNHVSNKTQVIDLKGGYLLPGFVDNHNHVFEAASEIGSDCLLDEDKDINGYIRSLRACKEELEEGEWLLGYGHELSQLMQDNDTSPLAILDEIFPNNPVIIMEQTSHSMWVNSLALAEAGITIHSKEPQGGKILKDKTTGKLLGILLDNAGDLLMEQAWKNQPNLAEANYQGLLNGLAQASKHGITTIGDGRLYWKRGWLETWLTAEKNQALTARVSLRPWVYPADEANEQLAFFKKIKSNDKQRLIQINQVKIYSDGIIINGTASTLDPYDWSYTPQIPHGLEYIPATKMAWWLSELNKIGYGAHIHAIGDAGVRNTLNAIETLRAQGATTAYSMTHLEMVSAQDIKRFAPLRVDADFQLGSDYIAEQDHDWAIPFIGKQRAHALLPINAILNTGANVTLSSDWNVNDINPLVGIANAVYLKNMGIADIHQAIAAYTINPAQALGLDDITGTLEVGKSADIVMLERDITQSTPKQIANTRVLMTWLEGEVVYDEQTE”, the protein production result is “failed”. “MKNLFLTSSFKDVVPLFTEFESNLQGKTVTFIPTASTVEEVTFYVEAGKKALESLGLLVEELDIATESLGEITTKLRKNDFIYVTGGNTFFLLQELKRTGADKLILEEIAAGKLYIGESAGAVITSPNIAYIQTMDSTKKAVNLTNYDALNLVDFSTLPHYNNTPFKEITQKIVTEYAGKSQIYPISNHEAIFIRGKEVITKRLS”: the protein production result is “failed”. On to “MKNLIFIATTFITTISLTNIAQAANQEHIRQLLATKQCQNCDLSGAGLVMADLTGANLSGANLAGANLSRANLSGADLRGANLSGAGLFGVNLSEAKLGGANLAGADLRSTFLSNAEFTGAYLQGTNFQGALGIPLQIATPDEFYALGVAEAQKGNQQQAINYFNQAIASKPEYAGAYLARGIARYQLFDRQGAAQDAQTAEKLFTSQDNATGIQTAQAFIKELQTPYTEKLSAGKPSFFDFLGSLGSVLLQFLPF”, for which the protein production entry is “failed”. Regarding “MKNLKKKLLKLVKIFVIIFVCLAAFFVYIFIEPYWINEKTTTISDSDVPQNFEGKKIVFISDIHHGPYFERERVADLVRKVNELEPDIIILGGDYVSGDVGYIGACFEELSRLKADMGIFGVTGNHDEWTDYNLTVKCMENAGITVLSNRAEWLEIGDDKIKIAGVDWSTDWYFNSEPYVDPLIKDAEENDFVILVSHTPDLAEELTTDKVDLVLSGHTHGGQITFFGLWAPYVPSFYGQKYRTGIVKTDKTMALVSNGVGNTFLPIRFFARPQINIIILDHP”, the protein production entry is “failed”. As to “MKNMDEERKYGLYSLIIGLLCVIGIVMLNGLICYVLYIIAVPSLLYGIGAFIIPKTRRKDAGKLPFRGY”, the protein production entry is given as “failed”. As for “MKNRETDSNVVTLYVTRHGKTILNTNHRAQGWADSPLVEKGVEVATNLGTGLKDIHFMNAYSSDSGRAIETANLVLKYSEQSKLKLEQRKKLRELNFGIFEGEKLDNMWDAVGKAAGVTSPEELLKFSIQEVIDLIRAADPTKQAEDWELFSTRIKAEIDKISEEAAKDGGGNVLVVVHGLLITTLIEMLDSSKTKLGVENASVTKIVYQDGIYTVESVGDMSYVAKGKESVEI”, the protein production entry was “not failed”. As for “MKNSFFSKFTPKEPKFFPLLKQLSDVLSASSVLLVESMEHDLPTERADYYKQIKDMEREGDRLTHLIFDELSTTFITPFDREDIHDLASCMDDVIDGINSSAKRIVIYNPRPISESGKELSRLIHEEAINIGKAMDELETFRKNPKPLRDYCTQLHDIENQADDVYELFITKLFEEEKDCIELIKIKEIMHELEKTTDAAEHVGKILKNLIVKYS”, the entry is “not failed”. Consider “MKNTIDVENDSIIAFTGGRIFTMDSEQKHAETVVINGGCIAAVGDRSILKSFPNAKIRDLKGRVLLPAFIDSHNHLSSFGCFFPTWANLIGLTEKGSVLEEIQLQTRKKPGKGWIVGFGWFDAKIGGVDLTKNDLDEISSDRPVLLIQATFHQSVVNSRALELVGITRSTPDPRCGIILRESDGMPTGVLVECAQVPVFRLAMEADTGTLANLIEAHAKELLKFGITAVHDPGVTPAAEAAYQKLHSEERLPVSVLMMPHGETILDNQLGYRLHGPVTGVGDERLRVGPVKLFADGATEETVAFSLKIGGQTINSGNYRDDFEEMLFAATEKGFRVCVHSFGNVTTDAVLTAFENAVTRAPAGFEMRPRLEHVTLISTSQIKRLAAMGGCACIQPQFLSRAQNTKQVVLDDGKWYAYGDLVKGGVTVASGSDNPGGFMDARDPIEGSVMGSTMSDGAGNAIFPDQVLPFEQWLWMYTAGGAYAGGQEKERGMLKKGMVADLVVLEGNLDPKNPPVVAETWVAGKQVYDHRV”, for which the protein production entry is reported as “failed”.

Turning to “MKNYKIILTALCFICIFSCSKTETKKSIKYKDGVYKSFANIKDDWGGTAEVEIKIEEGKIVECTFLSYEKNGNLKGPEYGKVDGVIKNMGLYKIAQASVLKAAEYGQKLIETQNIDDVDVIAGASISYKLFKDAVENALQGAMQNAKENLEHHHHHH”, the protein production result is reported as “failed”. Regarding “MKNYTLISPCFFGMEKMLAREITNLGYEIIKTEDGRITYKTDEFGIAKSNMWLRCAERVHLKIAEFEAKSFDELFENTKRINWSRYIPYGAQFPISKASSIKSKLYSTPDVQAIVKKAIVESLKKSYLEDGLLKEDKEKYPIFVFIHKDKVTISIDTTGDALHKRGYREKANKAPIRETLAAGLIYLTPWKAGRVLVDPMCGSGTILIEAAMIGINMAPGLNREFISEKWRTLDKKIWWDVRKDAFNKIDNESKFKIYGYDIDEESIDIARENAEIAGVDEYIEFNVGDATQFKSEDEFGFIITNPPYGERLEDKDSVKQLYKELGYAFRKLKNWSYYLITSYEDFEYEFGQKADKKRKLYNGMLKTNFFQYPGPKPPRNNK”, the protein production entry is given as “not failed”. With “MKPENFTSEKIPASLDEVSLNYFAHDGNKREYLTYIPSGYSHTIEAPVILNFHGFGGTASGQLALSDWRDLAEKHGIILIYPQGLELQKGGSHWNPDPVSSDSKSISDDLGFVRRLLKRISKNYSIDKSRVYATGYSNGAGMAYGLAHHMPDLIAGIAPVSGLMNDEYLSTTSGGSPVGLISFNGEEDWVRPVNGINGYLASVADISSHWARENSSTQSIAEQFAQANGDRIERTSYSRDDGLTTVEQYLVDRGGHEWFDLDIEGKDLNQLAWQFLSRLRKQD”, the protein production result is on record as “failed”. “MKPIDEELLLEQLIDNVKNCKDLEAAKALLFEICGHDAILEKAVDYCIFCHEGQFRKSGEPYAVHPILVATLVGFLSENKSNILAALLHDVIEDTNCTEEELREQFGSEVLKLVLGLTKIIEIREDNLISSKSKKSLTKSALTFRNMLLASIEDVGVLIVKLCDRLHNMLTLDILREDKQKRISEETLVVYAPIAHRLGISSIKNYLEDLSFKYLMPDEYKLIDNYINSNNQEMQLGLNEFISKIELLFLSNGFRQGSFEIQKRIKHSYSIYLKMQRKGIGIEEVLDLLGVRILVEKVSDCYLALGILHTHFNPLVSRFKDYIALPKQNGYQTIHTTLFDAKSIIEAQIRTFDMHKIAEFGIAAHWKYKEDGSVVAPRLDWLTDISMQSINNLENAEDYNAIELYEYAKDSLYVEDVAVYSPKGEIFTLPRGATVLDFAYEVHTKVGLHAKSAYVNRIKVPLLTELKNGDIVRVVTSNDKFYRCSWIDSVKTGKAKASIREFCKQKIREINLASSINMLSFIFGVDKNRIETWIEKENLVRRIRQVATDSAYLKDIVNGLKKYAKKSYWFDKYEIKEQKIGNFTLYCNHKIANVDFDFCCHPKRGDAVLAFVKGGNAIVHHKLCDRADKMIDNNQDMVFIKWDSNIPKSYKLIFSLENKKGVLAEFLAFLAKMQINLLTINLSSDLNSAVDYFEITMEIPDNINPDSVKDRLKSRCKILDFTSLNDAYKES”: the protein production entry was “failed”. For “MKPIHVGLLGLGTVGGGTLTVLRRNAEEITRRAGREIRVVRAAVRNLDKAEALAGGLPLTTNPFDVVDDPEIDIVVELIGGLEPARELVMQAIANGKHVVTANKHLVAKYGNEIFAAAQAKGVMVTFEAAVAGGIPIIKALREGLTANRIEWLAGIINGTSNFILSEMRDKGAAFDDVLKEAQRLGYAEADPTFDIEGIDAAHKLTILSAIAFGIPMQFERAYTEGISQLTREDVRYAEELGYRIKLLGIARRAENGIELRVHPTLIPERRLIANVDGAMNAVLVKGDAVGPTLYYGAGAGSEPTASAVVADLVDVTRLHTADPHHRVPHLAFQPDQLADTPILPMEAVRTAYYLRLRAFDRPGVLADITRILADSSISIDAMVQKEPAEGEEQVDIILLTHVTLEKNVNAAIAKIEALDAVAGKVMRIRLEDLGAK”, the protein production result is reported as “not failed”.

Regarding “MKPLHLKLNNFGPFLKEEIDFSKIDNNELFLISGKTGSGKTMIFDAMTYALFGKASTEQREENDLRSHFADGKQPMSVTFEFQLNHRIYKVHRQGPYIKEGNTTKTNAKFDVFEMVDGKYEIRESKVISGTQFIIELLGVNADQFRQLFILPQGEFKRFLISNSREKQGILRTLFDSEKFEAIREILKEELKKEKAQIENRYQQIDLLWQEIESFDDDKIKGLLELAT”, the protein production result is “failed”.
